Data from PMC3013631.

Molecular target: Irgb6 (mouse (endogenous in macrophages)) (UniProt Q62293)
Test: co-IP

Sequence of UniProt Q62293 (Q62293 whole entry): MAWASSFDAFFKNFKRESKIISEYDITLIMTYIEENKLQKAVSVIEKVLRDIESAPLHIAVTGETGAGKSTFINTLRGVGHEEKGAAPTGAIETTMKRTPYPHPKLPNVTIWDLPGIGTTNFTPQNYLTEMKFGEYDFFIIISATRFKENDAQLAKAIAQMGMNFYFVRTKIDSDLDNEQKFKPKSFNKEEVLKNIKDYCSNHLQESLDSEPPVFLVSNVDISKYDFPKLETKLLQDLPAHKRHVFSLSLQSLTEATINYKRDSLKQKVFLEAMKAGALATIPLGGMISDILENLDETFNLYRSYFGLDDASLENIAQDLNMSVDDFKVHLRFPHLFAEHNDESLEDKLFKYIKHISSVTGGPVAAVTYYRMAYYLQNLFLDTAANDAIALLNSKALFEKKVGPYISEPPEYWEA

kinase-dead ROP18 D/A (Ty-tagged; expressed in transgenic type III parasites) (from UniProt Q2PAY2 1-554) (enzyme)
fold change of co-precipitated ROP18 against active ROP18: 3 fold
